In FireProtDB (doi:10.1021/bi990893b):

B1: Cytochrome b5, P00171 (parent)
chain: MAEESSKAVKYYTLEEIQKHNNSKSTWLILHYKVYDLTKFLEEHPGGEEVLREQAGGDATENFEDVGHSTDARELSKTFIIGELHPDDRSKITKPSESIITTIDSNPSWWTNWLIPAISALFVALIYHLYTSEN

Variants of: B1
Settings: Bos taurus, pH 7, Thermal, Absorbance, Sodium phosphate 100 mM, structure 1CYO, whole UniProt chain shown; for ddG of mutation (higher = less stable): 67.2 °C

| Variant | ddG of mutation (higher = less stable) [kcal/mol] | Tm [°C] | change of melting temperature, mutant - wild type (higher = more stable) [°C] | unfolding enthalpy (van 't Hoff) [kcal/mol] |
| --- | --- | --- | --- | --- |
| MAEESSKAVKYYTLEEIQKHNNSKSTWLILHYKVYDLTKFLEEHPGGEEVLREQAGGDATENFEDKGHSTDARELSKTFIIGELHPDDRSKITKPSESIITTIDSNPSWWTNWLIPAISALFVALIYHLYTSEN [V66K] | 2.34 | 58.5 | -8.7 | 87 |
| MAEESSKAVKYYTLEEIQKHNNSKSTWLILHYKVYDLTKFLEEHPGGEEVLREQAGGDATENFEDYGHSTDARELSKTFIIGELHPDDRSKITKPSESIITTIDSNPSWWTNWLIPAISALFVALIYHLYTSEN [V66Y] | 1.29 | 62.5 | -4.7 | 91.3 |
| MAEESSKAVKYYTLEEIQKHNNSKSTWLILHYKVYDLTKFLEEHPGGEEVLREQAGGDATENFEDEGHSTDARELSKTFIIGELHPDDRSKITKPSESIITTIDSNPSWWTNWLIPAISALFVALIYHLYTSEN [V66E] | 1.1 | 63.2 | -4 | 93.2 |
| MAEESSKAVKYYTLEEIQKHNNSKSTWLILHYKVYDLTKFLEEHPGGEEVLREQAGGDATENFEDHGHSTDARELSKTFIIGELHPDDRSKITKPSESIITTIDSNPSWWTNWLIPAISALFVALIYHLYTSEN [V66H] | 1.63 | 61.3 | -5.9 | 88.2 |
